The target of the test is His-tagged human Rac1 recombinant protein (human, UniProt P63000 1-192). The test is described as follows: MALDI MS, linear mode acquisition.

With HRKKRRQRRRQFPGEYIPTVF [NipR2 (nitration inhibitory peptide for the Rho GTPases 2)], the binding result is recorded as “binds”.
For the molecule HRKKRRQRRRQFPGEFIPTVF [NipR2F (phenylalanine-substituted control peptide)], the binding result is recorded as “binds”.

Values taken from publication PMC7664366 (Redox Biology, 2020).
